One series addresses T1, Pab-Pol D (Pyrococcus abyssi, UniProt Q9V2F4).
T1 sequence (Q9V2F4 1-954): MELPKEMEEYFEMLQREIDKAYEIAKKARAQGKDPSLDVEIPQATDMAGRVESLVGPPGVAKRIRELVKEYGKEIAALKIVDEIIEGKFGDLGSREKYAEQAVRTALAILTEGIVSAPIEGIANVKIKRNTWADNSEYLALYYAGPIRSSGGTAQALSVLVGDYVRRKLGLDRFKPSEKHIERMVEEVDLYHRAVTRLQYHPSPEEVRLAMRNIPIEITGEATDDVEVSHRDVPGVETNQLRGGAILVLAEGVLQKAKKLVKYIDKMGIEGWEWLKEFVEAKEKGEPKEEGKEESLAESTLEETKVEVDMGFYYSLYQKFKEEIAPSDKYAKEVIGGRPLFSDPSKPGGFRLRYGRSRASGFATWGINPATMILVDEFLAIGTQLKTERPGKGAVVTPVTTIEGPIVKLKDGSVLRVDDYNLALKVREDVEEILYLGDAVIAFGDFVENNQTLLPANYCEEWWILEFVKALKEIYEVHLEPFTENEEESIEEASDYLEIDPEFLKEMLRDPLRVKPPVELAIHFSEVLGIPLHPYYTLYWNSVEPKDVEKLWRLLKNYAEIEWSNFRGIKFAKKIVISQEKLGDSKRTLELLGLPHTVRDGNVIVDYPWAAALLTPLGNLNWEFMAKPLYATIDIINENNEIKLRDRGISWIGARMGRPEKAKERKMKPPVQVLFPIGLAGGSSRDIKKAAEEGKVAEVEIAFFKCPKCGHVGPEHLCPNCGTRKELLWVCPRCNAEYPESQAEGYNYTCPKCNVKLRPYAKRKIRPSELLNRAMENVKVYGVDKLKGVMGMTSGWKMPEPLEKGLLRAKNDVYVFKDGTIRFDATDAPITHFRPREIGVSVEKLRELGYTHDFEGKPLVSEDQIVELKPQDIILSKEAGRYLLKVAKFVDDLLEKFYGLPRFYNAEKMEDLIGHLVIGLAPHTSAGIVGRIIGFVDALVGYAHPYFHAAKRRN
T1 sequence (Q9V2F4 1140-1455): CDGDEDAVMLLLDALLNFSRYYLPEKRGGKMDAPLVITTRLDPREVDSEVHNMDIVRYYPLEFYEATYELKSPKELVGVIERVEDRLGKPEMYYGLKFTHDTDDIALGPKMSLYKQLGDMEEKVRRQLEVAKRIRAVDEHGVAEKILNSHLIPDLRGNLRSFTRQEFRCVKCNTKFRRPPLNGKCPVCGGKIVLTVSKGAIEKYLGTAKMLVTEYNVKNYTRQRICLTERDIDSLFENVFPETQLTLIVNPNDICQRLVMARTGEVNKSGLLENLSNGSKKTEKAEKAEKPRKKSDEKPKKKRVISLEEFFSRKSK
T1 sequence (Q9V2F3 1-619 partner): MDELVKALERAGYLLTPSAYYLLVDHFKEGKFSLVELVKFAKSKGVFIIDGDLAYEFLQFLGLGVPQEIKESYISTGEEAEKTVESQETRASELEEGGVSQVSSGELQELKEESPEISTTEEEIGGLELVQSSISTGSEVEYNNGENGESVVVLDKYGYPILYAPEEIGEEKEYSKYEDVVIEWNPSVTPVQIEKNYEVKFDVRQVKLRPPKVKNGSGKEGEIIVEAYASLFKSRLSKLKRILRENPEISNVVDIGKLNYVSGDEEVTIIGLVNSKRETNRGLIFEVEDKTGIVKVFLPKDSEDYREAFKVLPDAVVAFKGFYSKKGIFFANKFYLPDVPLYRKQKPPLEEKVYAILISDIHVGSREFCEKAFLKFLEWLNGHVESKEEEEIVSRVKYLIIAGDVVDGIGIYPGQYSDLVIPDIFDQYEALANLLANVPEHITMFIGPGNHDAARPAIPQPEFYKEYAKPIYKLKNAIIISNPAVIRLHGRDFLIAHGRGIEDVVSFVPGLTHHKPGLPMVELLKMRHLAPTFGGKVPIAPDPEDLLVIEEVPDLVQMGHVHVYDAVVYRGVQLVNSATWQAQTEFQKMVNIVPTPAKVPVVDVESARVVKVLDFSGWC
Kind of series: primer extension with a single dNTP, denaturing gel. Type of series: biochemical. Particulars: exo+ enzyme; template U at +1; otherwise same.

Series [1] addresses Pfu-Pol D (family-D DNA polymerase, DP1 small + DP2 large subunits) (Pyrococcus furiosus, UniProt P81409;P81412 1-1263;1-613). The series can be described thus: fluorescence anisotropy. A general note: Fluorescence polarisation rises when a labelled molecule tumbles more slowly, as on binding a larger partner.

Pfu-Pol D (family-D DNA polymerase, DP1 small + DP2 large subunits), sequence (P81409 whole entry, chain 1 of 2): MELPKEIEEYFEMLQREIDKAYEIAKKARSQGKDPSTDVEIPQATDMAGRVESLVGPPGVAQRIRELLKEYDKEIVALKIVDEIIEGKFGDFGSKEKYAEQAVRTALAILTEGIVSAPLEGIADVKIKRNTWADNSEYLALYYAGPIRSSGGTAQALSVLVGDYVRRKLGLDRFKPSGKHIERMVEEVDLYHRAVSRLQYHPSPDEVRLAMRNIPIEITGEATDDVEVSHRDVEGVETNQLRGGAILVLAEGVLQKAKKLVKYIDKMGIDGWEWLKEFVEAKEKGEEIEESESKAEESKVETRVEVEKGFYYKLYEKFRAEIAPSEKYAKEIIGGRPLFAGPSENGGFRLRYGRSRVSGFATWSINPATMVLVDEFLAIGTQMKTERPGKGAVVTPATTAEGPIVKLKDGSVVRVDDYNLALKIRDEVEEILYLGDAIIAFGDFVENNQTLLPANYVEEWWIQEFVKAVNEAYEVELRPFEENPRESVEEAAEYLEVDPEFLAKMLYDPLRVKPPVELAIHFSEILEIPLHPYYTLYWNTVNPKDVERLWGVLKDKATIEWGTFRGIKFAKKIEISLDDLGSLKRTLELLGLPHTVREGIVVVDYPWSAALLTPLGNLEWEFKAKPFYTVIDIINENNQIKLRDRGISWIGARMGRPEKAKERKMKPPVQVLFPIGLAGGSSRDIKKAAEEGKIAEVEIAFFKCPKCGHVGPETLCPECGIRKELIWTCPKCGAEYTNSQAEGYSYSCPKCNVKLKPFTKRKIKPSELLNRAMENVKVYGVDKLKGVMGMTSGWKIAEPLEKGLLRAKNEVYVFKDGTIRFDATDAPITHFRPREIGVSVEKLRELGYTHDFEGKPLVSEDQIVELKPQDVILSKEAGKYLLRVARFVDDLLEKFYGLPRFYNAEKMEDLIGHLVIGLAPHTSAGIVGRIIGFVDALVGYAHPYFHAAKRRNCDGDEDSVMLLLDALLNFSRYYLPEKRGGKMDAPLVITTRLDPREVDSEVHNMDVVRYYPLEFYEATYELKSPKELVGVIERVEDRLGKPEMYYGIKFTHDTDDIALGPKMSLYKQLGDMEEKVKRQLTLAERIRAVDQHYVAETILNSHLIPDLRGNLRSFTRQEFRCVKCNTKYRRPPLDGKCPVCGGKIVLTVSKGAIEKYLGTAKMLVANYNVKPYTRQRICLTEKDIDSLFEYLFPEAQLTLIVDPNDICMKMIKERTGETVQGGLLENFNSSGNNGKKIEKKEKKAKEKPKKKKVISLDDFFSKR
Pfu-Pol D (family-D DNA polymerase, DP1 small + DP2 large subunits), sequence (P81412 whole entry, chain 2 of 2): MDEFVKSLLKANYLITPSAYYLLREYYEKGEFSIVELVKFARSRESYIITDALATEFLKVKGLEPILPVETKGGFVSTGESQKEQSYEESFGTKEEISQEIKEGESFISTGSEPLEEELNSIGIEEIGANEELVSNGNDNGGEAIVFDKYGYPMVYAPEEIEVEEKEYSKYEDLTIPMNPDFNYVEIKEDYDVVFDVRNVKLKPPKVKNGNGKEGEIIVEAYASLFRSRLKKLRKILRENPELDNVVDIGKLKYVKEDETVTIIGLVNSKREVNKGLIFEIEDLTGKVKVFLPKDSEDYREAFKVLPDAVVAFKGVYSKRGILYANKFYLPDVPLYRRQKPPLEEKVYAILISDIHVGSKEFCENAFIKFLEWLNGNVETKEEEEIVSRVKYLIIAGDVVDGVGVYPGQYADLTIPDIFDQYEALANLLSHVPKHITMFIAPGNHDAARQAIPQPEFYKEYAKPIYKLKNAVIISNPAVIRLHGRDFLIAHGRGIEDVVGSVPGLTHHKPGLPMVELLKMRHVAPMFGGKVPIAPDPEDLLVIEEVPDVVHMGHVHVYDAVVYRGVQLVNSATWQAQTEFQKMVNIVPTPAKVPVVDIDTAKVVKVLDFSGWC

Regarding `Nc1ncnc2c1ncn2[C@H]1C[C@H](O)[C@@H](COP(=O)(O)OP(=O)(O)OP(=O)(O)O)O1` [dATP], at Pab-Pol D, the “primer extension with a single dNTP, denaturing gel” value is “Pab-Pol D exo^+ only incorporated adenine opposite uracil”. Take TTTCTGGTTCCAGCTGGACCATTCGCCTATAGGACCTATT (ssDNA) [single strand, X=T]: the Kd – broadly, a measure of binding affinity in units of concentration – in series [1] was determined as 6 ± 1.6 nM.

B1: primer-template -1, X=U (dsDNA)
DNA 1: TTTCTGGTUCCAGCTGGACCATTCGCCTATAGGACCTATT
DNA 2: AATAGGTCCTATAGGCGAATGGTCCAGCTGGAA
modifications: deoxyuridine at template position 9
For B1, in series [1], the dissociation constant Kd was found to be 5.2 ± 1.3 nM.

B2: primer-template -1, X=T (dsDNA)
DNA 1: TTTCTGGTTCCAGCTGGACCATTCGCCTATAGGACCTATT
DNA 2: AATAGGTCCTATAGGCGAATGGTCCAGCTGGAA
On to B2, for which the Kd in series [1] stood at 9.3 ± 0.6 nM.

B3: primer-template +1, X=U (dsDNA)
DNA 1: TTTCTGGTUCCAGCTGGACCATTCGCCTATAGGACCTATT
DNA 2: AATAGGTCCTATAGGCGAATGGTCCAGCTGG
modifications: deoxyuridine at template position 9
Consider B3, for which, in series [1], the Kd came out at 5.8 ± 0.4 nM.

In the case of TTTCTGGTUCCAGCTGGACCATTCGCCTATAGGACCTATT (ssDNA, deoxyuridine at position 9) [single strand, X=U], in series [1], the Kd is 3.4 ± 0.3 nM.

B4: primer-template +1, X=T (dsDNA)
DNA 1: TTTCTGGTTCCAGCTGGACCATTCGCCTATAGGACCTATT
DNA 2: AATAGGTCCTATAGGCGAATGGTCCAGCTGG
Take B4: the Kd in series [1] was 9.1 ± 1.5 nM.
